Results taken from paper PMC5775292, “Comprehensive reduction of amino acid set in a protein suggests the importance of prebiotic amino acids for stable proteins” (Scientific Reports, 2018).

Target: the molecule itself
Assay: SEC; analytical gel filtration, Superdex 200 (1.0 x 30 cm), 20 mM potassium phosphate pH 6.0, 150 mM KCl, 1 mM EDTA; initial protein concentration 20 uM, 0.2 ml loaded, 0.5 ml/min; apparent molar mass from a calibration curve

B1: Bacillus subtilis nucleoside diphosphate kinase (enzyme, UniProt P31103 1-149, looked up)
chain: MMEKTFIMVKPDGVQRQLIGDILSRFERKGLQLAGAKLMRVTEQMAEKHYAEHQGKPFFGELVEFITSGPVFAMVWEGENVIEVTRQLIGKTNPKEALPGTIRGDYGMFVGKNIIHGSDSLESAEREINIFFKNEELVSYQQLMAGWIY
notes: nucleoside diphosphate kinase, Bacillus subtilis; construct not described; also called B. subtilis NDK; extant mesophilic NDK
For B1, the “stoichiometry N” value was 6.
